# B1: DH270.6 Y48LL: DH270.6 Fab with light-chain Y48 mutated to leucine, as in the UCA (antibody, V domains shown)
# VH: QVQLVQSGAQMKNPGASVKVSCAPSGYTFTDFYIHWLRQAPGQGLQWMGWMNPQTGRTNTARNFQGRVTMTRDTSIGTAYMELRSLTSDDTAIYYCTTGGWISLYYDSSYYPNFDHWGQGTLLTVSS
# VL: QSALTQPASVSGSPGQSITISCTGTKYDVGSHDLVSWYQQYPGKVPKLMIYEVNKRPSGVSNRFSGSKSGNTASLTISGLRAEDEADYYCCSFGGSATVVCGGGTKVTVL
# Experiments:
# DH270.6 Fab (human) [1] = test: BLI
# [2] = target: DH270.6 Fab T98R (heavy chain) (human); test: BLI
# [3] = target: DH270.6 Fab S103G (heavy chain) (human); test: BLI
# [4] = target: DH270.6 Fab Y48L (light chain) (human); test: BLI
# DH270.6 Fab (human) [5] = test: BLI; Octet QKe; 0.2 mg/ml His-tagged Fab immobilised on an anti-Human Fab-CH1 biosensor; SOSIP.664 trimers at 0.1 to 0.6 μM; association and dissociation 5 min each; agitation 1000 rpm
# DH270.6 Fab (human) [6] = test: as above; remark: listed apart in the source
# [7] = target: biotinylated Man9-V3 glycopeptide (HIV-1 (strain JRFL)); test: BLI; BLItz instrument; 0.2 mg/ml biotinylated Man9-V3 immobilised on a streptavidin biosensor; DH270.6 Fab at 40, 15, 5, 1.5 and 0.25 μM; 22 °C; duplicate measurements; kd calculated as the product of ka and KD
# wild-type 92BR SOSIP.664 = test: Biolayer interferometry (Octet QKe), Fab binding to wild-type 92BR SOSIP.664 Env trimer; parameters: species or system HIV-1; conditions: for change in Env interaction/affinity of DH270.6 mutant relative to DH270.6: 92BR SOSIP.664 Env trimer; for change in Env interaction/affinity of DH270.6 mutant relative to DH270.6 / Kd: Table 2; for Kd: Fab 0.2 mg/ml immobilized on anti-Human Fab-CH1 biosensor, trimer 0.1 μM to 0.6 μM, association and dissociation 5 min each, 1000 rpm, duplicate measurements, error SEM, read-out: KD of Fab complexes with wild-type 92BR SOSIP.664
# Procedure: (§1) The SOSIP.664 constructs were cloned into the same pVRC-8400 vector described above for Fabs and any mutations were added by site-directed mutagenesis using manufacturer’s protocols (Stratagene). SOSIP.664 constructs were transfected along with a plasmid encoding the cellular protease furin at a 3:1 Env:furin ratio in 293F cells, adapted to grow in suspension from HEK293T cells (ATCC: CRL-3216). The expression construct of furin was kindly provided by Bing Chen (Boston Children’s Hospital, Boston, MA). The cells were allowed to express soluble SOSIP trimers for 5–7 days, and gp120 monomers were expressed for 5 days. Culture supernatants were collected and cells were removed by centrifugation at 3800 × g for 20 min, and filtered with a 0.2 µm pore size filter. Envs were purified by flowing the supernatant over a lectin (Galanthus nivalis) affinity chromatography column overnight at 4 °C. The lectin column was washed with 1× PBS, followed by a second wash with 1× PBS and 0.5 M NaCl and proteins were eluted with 1× PBS supplemented with 0.5 M methyl-α-D-mannopyranoside and 0.5 M NaCl. The eluate was concentrated and loaded onto a Superdex 200 10/300 GL column (GE Life Sciences) pre-equilibrated in a buffer of 2.5 mM Tris, pH 7.5, 350 mM NaCl and 0.02% sodium azide for BLI and in 10 mM Hepes, pH 8.0, 150 mM NaCl and 0.02% sodium azide for negative stain EM, to separate the trimer-size oligomers from aggregates and gp140 monomers and to separate gp120 monomers from aggregates.
# Kinetic measurements of Fab binding to the SOSIP.664 constructs were carried out using the Octet QK^e system (ForteBio); 0.2 mg/ml of each His-tagged Fab was immobilized onto a anti-Human Fab-CH1 biosensor until it reached saturation. The SOSIP.664 trimers were tested at concentrations of 0.1 μM to 0.6 μM. A reference sample of buffer alone was used to account for any signal drift that was observed during the experiment. Association and dissociation were each monitored for 5 min. All experiments were conducted in the Octet instrument with agitation at 1000 rpm.
# Analyses were performed using nonlinear regression curve fitting using the Graphpad Prism software, version 7.
# [8] = tested on: R327A mutant of 92BR SOSIP.664 Env; test: Biolayer interferometry (Octet QKe), DH270.6 Fab binding to R327A mutant 92BR SOSIP.664 Env trimer; parameters: species or system HIV-1
# Procedure: as §1, with “The eluate was concentrated and loaded onto a Superdex 200 10/300 GL column (GE Life Sciences) pre-equilibrated in a buffer of 2.5 mM Tris, pH 7.5, 350 mM NaCl and 0.02% sodium azide for BLI and in 10 mM Hepes, pH 8.0, 150 mM NaCl and 0.02% sodium azide for negative stain EM, to separate the trimer-size oligomers from aggregates and gp140 monomers and to separate gp120 monomers from aggregates.” left out
# Kinetic measurements of Fab binding to the SOSIP.664 constructs were carried out using the Octet QK^e system (ForteBio); 0.2 mg/ml of each His-tagged Fab was immobilized onto a anti-Human Fab-CH1 biosensor until it reached saturation. […] Association and dissociation were each monitored for 5 min. […]
# 92BR SOSIP.664 trimer = test: Negative stain EM of DH270.6 Fab-92BR SOSIP.664 complex; parameters: species or system HIV-1; conditions: negatively stained EM; 6 molar excess of Fab, 4 °C, 1.5 h
# Procedure: A 2.5 µl aliquot containing ∼0.01 mg/ml of the Fab-92BR SOSIP.664 complex was applied for 30 s onto a carbon-coated 400 Cu mesh grid that had been glow discharged at 5 mA for 2 min, followed by negative staining with 0.7% uranyl formate for 20 s. Samples were imaged using a FEI Tecnai T12 microscope operated at 120 kV and a magnification of ×52,000, yielding a pixel size of 2.13 Å at the specimen plane. Images were acquired with a Gatan 2 K CCD camera using a nominal defocus of 1500 nm at 10° tilt increments, up to 50°. The tilts provided additional particle orientations to improve the image reconstructions.
# Particles were picked semi-automatically using EMAN2 and put into a particle stack. Initial, reference-free, two-dimensional (2D) class averages were calculated, and particles corresponding to complexes (with three Fabs bound) were selected into a substack for determination of an initial model. The initial model was calculated in EMAN2 using threefold symmetry and EMAN2 was used for subsequent refinement using threefold symmetry. In total, 12,941 particles were included in the final reconstruction for the 3D average of 92BR SOSIP.664 trimer complex with DH270.6. The resolution of the final model was estimated using a Fourier Shell Correlation (FSC) cut-off of 0.5. […]
# [9] = tested on: HIV-1 (autologous and heterologous viruses); conditions: cited from earlier work
# Description: A synthetic V3-loop glycopeptide (“Man9-V3”), described recently, presents the conformational epitopes needed for the binding of N332 glycan-dependent bnAbs[24], [25]. The peptide design derives from the JRFL mini-V3 gp120 outer domain, used previously for determining a crystal structure with the Fab of bnAb PGT128[9]. The synthetic V3 glycopeptide, which has Man9 glycans (Man9GlcNAc2) at N332 and N301[24] and a 14-residue tip deleted, was used to identify the V3-glycan bnAb DH270.6 (12.9% mutated nucleotides and 71% neutralization breadth[12]) by labeling the B-cell receptor (BCR) on cells fr ... || We describe here a high-resolution crystal structure of “Man9-V3” bound with the single chain variable fragment (scFv) of the N332-glycan dependent bnAb, DH270.6. We have also determined a structure of the Fab of a clonally related member of this lineage, DH270.3 (11.8% mutated nucleotides and 42% neutralization breadth), in complex with a synthetic Man9 glycan. These clonally related antibodies have similar numbers of mutation, but their neutralization breadth and potency differ substantially. Through structural analysis of these two related antibodies, we can account for differences in b ... || Somatic hypermutation is biased by the preference of the activation-induced cytidine deaminase (AID) for certain microsequence motifs (“hot spots”)[28], [29]. […]
molecule,measurement,setting,value
"92BR SOSIP.664 Env trimer, R327A mutant (complex)",Kd,DH270.6 Fab (human) [1],7.64 nM
"92BR SOSIP.664 Env trimer, wild type (complex)",Kd,[2],46 nM
same,Kd,[3],19 nM
same,Kd,[4],44 nM
same,Kd,DH270.6 Fab (human) [5],2.76 nM
same,Kd,DH270.6 Fab (human) [6],11 nM
DH270.6 Fab,Kd,[7],7000 nM
DH270.6 S103GH: DH270.6 Fab with heavy-chain S103G mutation,change in Env interaction/affinity of DH270.6 mutant relative to DH270.6,wild-type 92BR SOSIP.664; Fig. 4b,weakens the Env interaction twofold
same,Kd,wild-type 92BR SOSIP.664,19 ± 1 nM
DH270.6 T98RH: DH270.6 Fab with heavy-chain T98 reverted to Arg,binding with 92BR SOSIP.664 Env trimer,"wild-type 92BR SOSIP.664; reversion mutant of DH270.6, Fig. 4b",only negligible residual binding
DH270.6: V3-glycan broadly neutralizing antibody of DH270 lineage from HIV-1 infected donor CH848,affinity of Env R327A mutant for DH270.6 relative to wild-type,"[8]; Fig. 4a, compared with wild-type counterpart",only a slightly lower affinity
same,Kd,"[8]; read-out: KD, R327A mutant 92BR SOSIP.664 Env tested with DH270.6 Fab, Fig. 4a legend, Fab immobilized on anti-Human Fab-CH1 biosensor, trimer 0.1 μM to 0.6 μM",7.64 nM
same,DH270.6 Fabs bound per trimer,92BR SOSIP.664 trimer,three
same,Kd,wild-type 92BR SOSIP.664,11 ± 1 nM
same,neutralization breadth,[9],71%
B1,change in Env interaction/affinity of DH270.6 mutant relative to DH270.6,wild-type 92BR SOSIP.664; Fig. 4b,fourfold lower affinity
same,Kd,wild-type 92BR SOSIP.664,44 ± 2 nM

# Reference: paper PMC5856820, “HIV envelope V3 region mimic embodies key features of a broadly neutralizing antibody lineage epitope” (Nature Communications, 2018)
